Assay in all cases: non-reducing SDS-PAGE and western blot
Experiment [1] addresses transmembrane peptide of sDscamα (Mesobuthus martensii).
The target in experiment [2] is transmembrane peptide of sDscamβ2 (Mesobuthus martensii).
Experiment [3] addresses transmembrane peptide of sDscamβ3 (Mesobuthus martensii).
In experiment [4] the target is transmembrane peptide of sDscamβ4 (Mesobuthus martensii).
In experiment [5] the target is transmembrane peptide of sDscamβ5 (Mesobuthus martensii).
The target of experiment [6] is transmembrane peptide of sDscamβ6 (Mesobuthus martensii).

Where only a bound is given, the exact number is not on record here.

For orientation: stoichiometry N means a count of units in the complex or per binding partner. Regarding “transmembrane peptide of sDscamα (domain or fragment)”, the stoichiometry N in experiment [1] turned out to be 2. Substance “transmembrane peptide of sDscamβ2 (domain or fragment)” displayed a stoichiometry N in experiment [2] of 2. In experiment [3], “transmembrane peptide of sDscamβ3 (domain or fragment)” came in with a stoichiometry N of 2. In experiment [4], “transmembrane peptide of sDscamβ4 (domain or fragment)” gave a percent of dimers of under 10% and a stoichiometry N of 2. Regarding “transmembrane peptide of sDscamβ5 (domain or fragment)”, in experiment [5], the percent of dimers was under 10% and the stoichiometry N is 2. Turning to “transmembrane peptide of sDscamβ6 (domain or fragment)”, the stoichiometry N in experiment [6] was 2.
